{"source": "patent US20090074766A1", "about": "“Methods of inhibiting HIV-2 infection” (priority 2007, published 2009)", "molecules": {"B1": {"name": "PRO 140: humanized IgG4,κ anti-CCR5 monoclonal antibody, humanized version of murine mAb PA14 (antibody, chains of the INN, looked up, V domains shown)", "VH": "EVQLVESGGGLVKPGGSLRLSCAASGYTFSNYWIGWVRQAPGKGLEWIGDIYPGGNYIRNNEKFKDKTTLSADTSKNTAYLQMNSLKTEDTAVYYCGSSFGSNYVFAWFTYWGQGTLVTVSS", "VL": "DIVMTQSPLSLPVTPGEPASISCRSSQRLLSSYGHTYLHWYLQKPGQSPQLLIYEVSNRFSGVPDRFSGSGSGTDFTLKISRVEAEDVGVYYCSQSTHVPLTFGQGTKVEIK"}}, "key": {"R5 HIV-2 isolates": {"system": "R5 HIV-2 isolates", "experiment": "Inhibition of replication in PBMC cultures, RT activity readout: panel of five R5 HIV-2 isolates", "format": "cell-based", "procedure": "Two well-characterized R5 HIV-1 isolates were included for comparative purposes.\nViruses: All virus isolates were grown and titered exclusively in stimulated PBMC as described previously.\nEqual numbers of cells from each donor were then separately stimulated with 5 ug phytohemagglutinin/ml (Sigma, St. Louis, Mo.) or with surface-immobilized anti-CD3 antibody OKT3 in RPMI 1640 medium containing 10% fetal calf serum, 100 Units of interleukin-2/ml (NIH AIDS Research and Reference Reagent Program), glutamine, and antibiotics (PBMC culture medium) as previously described. After 72 hours, equal numbers of PBMC stimulated by one of these two methods from each donor were combined for use in infection assays as follows. […] The virus inoculum was adjusted to 400 to 2,000 times the TCID50 per ml in PBMC culture medium, and a 50-ul aliquot was added to each culture. The inhibitory doses refer to the concentrations of the agents present at this point in the culture, when virus, cells, and inhibitors were all present at their final concentrations.\nThe inhibition data were analyzed using GraphPad Prism software (GraphPad Software, San Diego, Calif.). A 4-parameter logistic fit was used calculate the concentration of inhibitor that afforded a 50% and a 90% reduction in RT activity. […] The % inhibitions where best-fit curve reached a top plateau, also as calculated by GraphPad Prism software, are reported as well as maximum percent inhibition (MPI). […] Inhibition curves with a poor sigmoid fit (R^2<0.7) were excluded from data analysis.\nThe panel was tested five times on a different PBMC donor pool each time, using the RT ELISA as a readout."}, "HIV-1 JR-FL": {"system": "HIV-1 JR-FL", "experiment": "Previous studies (300-TD-028): HIV-1 replication in PBMC quantitated by p24 ELISA, JR-FL", "format": "cell-based", "procedure": "(§1) The EC values were measured by p24 ELISA in previous studies, according to published methods. Because the p24 ELISA cannot efficiently quantitate p24 from the HIV-2 isolates used in this study, a commercial ELISA that measures reverse transcriptase was chosen as a readout for both the HIV-2 and HIV-1 infection assays in the present study."}, "HIV-1 CC 1/85": {"system": "HIV-1 CC 1/85", "experiment": "Previous studies (300-TD-028): HIV-1 replication in PBMC quantitated by p24 ELISA, CC 1/85", "format": "cell-based", "procedure": "as §1"}, "[1]": {"conditions": "human, in vivo", "procedure": "Individuals were treated in sequential, dose-rising cohorts of 5 subjects (4 active and 1 placebo) each and evaluated for up to 120 days post-treatment. […] Safety assessments consisted of monitoring the following: vital signs (blood pressure, pulse, temperature, etc; hematology (hemoglobin, hematocrit, leukocytes, platelets, etc.); serum chemistries (AST/ALT, alkaline phosphatase, BUN, creatinine, etc.); urinalysis (pH, specific gravity, protein, glucose, leukocytes, etc.); and ECGs (12-lead)."}, "CCR5 lymphocytes": {"system": "CCR5 lymphocytes", "format": "in vivo, human", "procedure": "Whole blood specimens were combined separately with the indicated phycoerythrin-labeled anti-CCR5 antibodies or with appropriate isotype-control antibodies. Erythocytes were lysed and leukocytes were stabilized using the ImmunoPrep Reagent System (Beckman Coulter), and the cells were analyzed on a TQ Prep™ flow cytometry workstation (Beckman Coulter). Data were expressed as the percent of CCR5 cells relative to all cells gated in the analysis.\nFor up to 60 days post-treatment, at the times indicated in FIG. 6, blood was collected and analyzed for CCR5 lymphocyte levels.\nBackground binding of isotype control antibodies was unchanged."}, "[2]": {"experiment": "Phase 1b clinical trial: safety, immunogenicity, RANTES, coreceptor tropism (Trofile)", "format": "in vivo, human", "excerpt": "All patients were screened prior to the study for the presence of virus that utilizes only CCR5 as the entry coreceptor., i.e., CCR5-tropic virus.\nWhere no CXCR4-using clones are identified in a pre-dose sample from a subject, the on-treatment CXCR4-using virus can be identified as being phylogenetically very distant from the CCR5 tropic baseline virus; in such a case, the emergence of a pre-dose or pre-treatment CXCR4-using virus, i.e., one that is present at baseline, but is not detected, may likely explain the D/M tropism in the subject, as opposed to a tropism switch."}, "HIV-1": {"system": "HIV-1", "conditions": "Table 2 comparison; cited from earlier work"}, "[3]": {"conditions": "Median line of the five R5 HIV-2 isolates"}, "[4]": {"conditions": "individual assays (Source), previous study, p24 ELISA"}, "[5]": {"conditions": "previous studies n = 33, median"}, "[6]": {"conditions": "previous studies n = 24, median"}}, "note": "“And” between values parts separate entries of the source, which are not always exact repeats. Equal values may be shown once. Read-outs that look alike come from different tables or passages of the source.", "data": [{"molecule": "B1", "values": [{"measurement": "EC50, median over the R5 HIV-2 isolates", "setting": "R5 HIV-2 isolates; [3]", "result": 0.12, "unit": "µg/mL"}, {"measurement": "EC90, median over the R5 HIV-2 isolates", "setting": "R5 HIV-2 isolates; [3]", "result": 21, "unit": "µg/mL"}, {"measurement": "median MPI against the R5 HIV-2 isolates", "setting": "R5 HIV-2 isolates; maximum percent inhibition", "result": 96, "unit": "%"}, {"measurement": "MPI, Median Values, all R5 HIV-2 Viruses", "setting": "R5 HIV-2 isolates; median, all R5 HIV-2 viruses", "result": 96, "unit": "%"}, {"measurement": "EC50", "setting": "HIV-1 JR-FL; [4]", "result": "0.37 µg/mL and 0.003 µg/mL and 0.03 µg/mL and 0.28 µg/mL and 0.13 µg/mL and 0.05 µg/mL and 0.97 µg/mL and 0.39 µg/mL and <0.001 µg/mL and 0.001 µg/mL and 1.8 µg/mL and 0.24 µg/mL and 0.14 µg/mL and 0.58 µg/mL and 0.45 µg/mL and 0.06 µg/mL and 0.72 µg/mL and 1.9 µg/mL and 0.61 µg/mL and 0.69 µg/mL and 0.12 µg/mL and 0.02 µg/mL and 2.7 µg/mL and 0.48 µg/mL and 0.04 µg/mL and <0.1 µg/mL and 0.43 µg/mL"}, {"measurement": "EC90", "setting": "HIV-1 JR-FL; [4]", "result": "3.4 µg/mL and 0.01 µg/mL and 18 µg/mL and 5.4 µg/mL and 2.2 µg/mL and 3.1 µg/mL and 12 µg/mL and 0.02 µg/mL and <0.001 µg/mL and 0.13 µg/mL and 0.52 µg/mL and >50 µg/mL and 0.93 µg/mL and 5.8 µg/mL and 8.1 µg/mL and 8.2 µg/mL and 2.1 µg/mL and 10 µg/mL and 11 µg/mL and 0.22 µg/mL and 3.7 µg/mL and 22 µg/mL and 1.2 µg/mL and 34 µg/mL"}, {"measurement": "EC50 (mean)", "setting": "HIV-1 JR-FL; previous studies n = 33, mean", "result": "<0.41", "unit": "µg/mL"}, {"measurement": "EC90 (mean)", "setting": "HIV-1 JR-FL; previous studies n = 33, mean", "result": ">10", "unit": "µg/mL"}, {"measurement": "EC50 (median)", "setting": "HIV-1 JR-FL; [5]", "result": 0.13, "unit": "µg/mL"}, {"measurement": "EC90 (median)", "setting": "HIV-1 JR-FL; [5]", "result": 3.4, "unit": "µg/mL"}, {"measurement": "EC50", "setting": "HIV-1 CC 1/85; [4]", "result": "1.1 µg/mL and 0.004 µg/mL and 1.4 µg/mL and 0.16 µg/mL and 2.1 µg/mL and 0.006 µg/mL and <0.001 µg/mL and 0.001 µg/mL and 0.01 µg/mL and 4.5 µg/mL and 0.7 µg/mL and 0.96 µg/mL and 0.67 µg/mL and 0.58 µg/mL and 5.4 µg/mL and 4.6 µg/mL and 0.04 µg/mL and 0.85 µg/mL and 7.8 µg/mL and 5.1 µg/mL and 2.7 µg/mL and 0.08 µg/mL and 0.1 µg/mL"}, {"measurement": "EC90", "setting": "HIV-1 CC 1/85; [4]", "result": "13 µg/mL and 0.34 µg/mL and 4.2 µg/mL and 3.6 µg/mL and 9.6 µg/mL and 0.22 µg/mL and <0.001 µg/mL and 0.01 µg/mL and 0.03 µg/mL and 1.1 µg/mL and >50 µg/mL and 4.9 µg/mL and 8.1 µg/mL and 24 µg/mL and 33 µg/mL and 7.3 µg/mL and 8.2 µg/mL and 0.88 µg/mL and 3.4 µg/mL"}, {"measurement": "EC50 (mean)", "setting": "HIV-1 CC 1/85; previous studies n = 24, mean", "result": "<1.6", "unit": "µg/mL"}, {"measurement": "EC90 (mean)", "setting": "HIV-1 CC 1/85; previous studies n = 24, mean", "result": ">12", "unit": "µg/mL"}, {"measurement": "EC50 (median)", "setting": "HIV-1 CC 1/85; [6]", "result": 0.69, "unit": "µg/mL"}, {"measurement": "EC90 (median)", "setting": "HIV-1 CC 1/85; [6]", "result": 4.9, "unit": "µg/mL"}, {"measurement": "dose-limiting toxicity", "setting": "[1]", "result": "no dose-limiting toxicity"}, {"measurement": "time cells remain partially coated", "setting": "CCR5 lymphocytes; single 2 mg/kg dose", "result": "> 4", "unit": "weeks"}, {"measurement": "time cells remain partially coated", "setting": "CCR5 lymphocytes; single 5 mg/kg dose", "result": "> 60", "unit": "days"}, {"measurement": "subjects with dual/mixed tropism result post-treatment", "setting": "[2]; PRO 140 subjects (0.5 mg/kg group, day 8 only)", "result": "1/30"}, {"measurement": "dose-limiting toxicity", "setting": "[2]; Phase 1b", "result": "No dose-limiting toxicity or obvious pattern of toxicity"}, {"measurement": "plasma RANTES (CCL5) chemokine levels", "setting": "[2]; Phase 1b", "result": "No change in plasma RANTES (CCL5) chemokine levels"}, {"measurement": "treatment related SAEs", "setting": "[2]; Phase 1b", "result": "No treatment related SAEs"}, {"measurement": "tolerability", "setting": "[2]; all study groups (0.5, 2.0, 5.0 mg/kg)", "result": "well-tolerated"}, {"measurement": "Development of Resistance In Vitro", "setting": "HIV-1", "result": "None at 40 weeks"}]}]}
